Measurements taken from the supplement of paper PMC7125110.
± gives the standard error. For part of these data: Variants at the floor of the assay were thinned out.

B1: glmS ribozyme (parent)
chain: AUAAAAGCGCCAGAACUACAGAAAUGUAGUUGACGAGGAGGAGGUUUAUCGAAUUUUCGGCGGAUGCCUCCAAA

What was measured:
Details in all cases: with glucosamine-6-phosphate
[1] = variants of: B1; assay: self-cleavage kobs at 40 uM GlcN6P; higher = faster cleavage; RNA array
Method in brief: (§1)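 Barcoded ribozyme variants, transcribed in situ by E. coli RNA polymerase on sequenced MiSeq chips, were followed via a hybridised Cy3 probe at 37 °C. Glucosamine-6-phosphate ranged from 40 μM to 10 mM in HEPES/KCl/Mg(OAc)2 buffer. kobs came from decay fits to per-tile medians, and kcat and KM from weighted Michaelis–Menten fits.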

[2] = variants of: B1; assay: self-cleavage kobs at 160 uM GlcN6P; higher = faster cleavage; RNA array
Method in brief: as §1

[3] = variants of: B1; assay: self-cleavage kobs at 640 uM GlcN6P; higher = faster cleavage; RNA array
Method in brief: as §1

[4] = variants of: B1; assay: self-cleavage kobs at 2500 uM GlcN6P; higher = faster cleavage; RNA array
Method in brief: as §1

[5] = variants of: B1; assay: self-cleavage kobs at 10000 uM GlcN6P; higher = faster cleavage; RNA array
Method in brief: as §1

[6] = variants of: B1; assay: KM; higher = weaker cofactor use; RNA array
Method in brief: as §1

[7] = variants of: B1; assay: kcat; higher = faster cleavage; RNA array
Method in brief: as §1

A48U G60U was tested, and the “self-cleavage kobs at 40 uM GlcN6P” value [1] was under 1e-05 s⁻¹, the “self-cleavage kobs at 160 uM GlcN6P” value [2] was under 1e-05 s⁻¹ and the “self-cleavage kobs at 640 uM GlcN6P” value [3] was under 1e-05 s⁻¹. For the same variant, the “self-cleavage kobs at 2500 uM GlcN6P” value [4] was under 1e-05 s⁻¹ and the “self-cleavage kobs at 10000 uM GlcN6P” value [5] was under 1e-05 s⁻¹.

A14C G40U U46C C68U was tested, and the “self-cleavage kobs at 40 uM GlcN6P” value [1] was under 1e-05 s⁻¹.

With C8U G38C G43A G44C G63U the “self-cleavage kobs at 40 uM GlcN6P” value [1] was under 1e-05 s⁻¹ and the “self-cleavage kobs at 10000 uM GlcN6P” value [5] was under 1e-05 s⁻¹.

A42C U56G gave a KM [6] of 4130 ± 120 µM.

In the case of U46C U56A, the kcat [7] is reported as 0.00121 ± 0.00013 s⁻¹, the KM [6] is reported as 1470 ± 230 µM and the “self-cleavage kobs at 40 uM GlcN6P” value [1] is reported as 2.85e-05 ± 1e-05 s⁻¹. The “self-cleavage kobs at 160 uM GlcN6P” value [2] was 0.000117 ± 1.4e-05 s⁻¹, the “self-cleavage kobs at 640 uM GlcN6P” value [3] was 0.000406 ± 0.00011 s⁻¹ and the “self-cleavage kobs at 2500 uM GlcN6P” value [4] was 0.000915 ± 0.00015 s⁻¹. The “self-cleavage kobs at 10000 uM GlcN6P” value [5] was 0.00098 ± 0.00014 s⁻¹.

For U49A C58A, the “self-cleavage kobs at 40 uM GlcN6P” value [1] was under 1e-05 s⁻¹, the “self-cleavage kobs at 160 uM GlcN6P” value [2] was under 1e-05 s⁻¹ and the “self-cleavage kobs at 640 uM GlcN6P” value [3] was under 1e-05 s⁻¹.

For A42G A48U, the kcat [7] was 0.00077 ± 0.00015 s⁻¹, the KM [6] was 3220 ± 1100 µM and the “self-cleavage kobs at 640 uM GlcN6P” value [3] was 0.000148 ± 4.3e-05 s⁻¹. The “self-cleavage kobs at 10000 uM GlcN6P” value [5] was 0.000576 ± 0.00013 s⁻¹.

U31A U69C was tested, and the “self-cleavage kobs at 40 uM GlcN6P” value [1] was 0.000182 ± 6.5e-05 s⁻¹, the “self-cleavage kobs at 160 uM GlcN6P” value [2] was 0.000243 ± 4.5e-05 s⁻¹ and the “self-cleavage kobs at 640 uM GlcN6P” value [3] was 0.000515 ± 0.00012 s⁻¹. For the same variant, the “self-cleavage kobs at 10000 uM GlcN6P” value [5] was 0.0039 ± 0.0012 s⁻¹.

For U31C G51A, the “self-cleavage kobs at 40 uM GlcN6P” value [1] was under 1e-05 s⁻¹, the “self-cleavage kobs at 640 uM GlcN6P” value [3] was under 1e-05 s⁻¹ and the “self-cleavage kobs at 2500 uM GlcN6P” value [4] was under 1e-05 s⁻¹. For the same variant, the “self-cleavage kobs at 10000 uM GlcN6P” value [5] was under 1e-05 s⁻¹.

Work on G44C C50A yielded a KM [6] of 105 ± 18 µM.

With A36C G41C U54G G66C C68G the “self-cleavage kobs at 40 uM GlcN6P” value [1] was under 1e-05 s⁻¹.

In the case of A42C C70U, the kcat [7] is reported as 1.24e-05 ± 3.3e-06 s⁻¹.

A14C G63A was tested, and the “self-cleavage kobs at 40 uM GlcN6P” value [1] was under 1e-05 s⁻¹, the “self-cleavage kobs at 640 uM GlcN6P” value [3] was under 1e-05 s⁻¹ and the “self-cleavage kobs at 10000 uM GlcN6P” value [5] was under 1e-05 s⁻¹.

For C11A G29U C50G, the “self-cleavage kobs at 40 uM GlcN6P” value [1] was 6.35e-05 ± 1.7e-05 s⁻¹, the “self-cleavage kobs at 160 uM GlcN6P” value [2] was 0.000296 ± 0.00011 s⁻¹ and the “self-cleavage kobs at 2500 uM GlcN6P” value [4] was 5.28e-05 ± 2.3e-05 s⁻¹.

A33U A36C C58G U69C was tested, and the “self-cleavage kobs at 40 uM GlcN6P” value [1] was 4.07e-05 ± 2e-05 s⁻¹ and the “self-cleavage kobs at 160 uM GlcN6P” value [2] was 7.32e-05 ± 1.9e-05 s⁻¹.

A36U U54C was tested, and the “self-cleavage kobs at 40 uM GlcN6P” value [1] was under 1e-05 s⁻¹, the “self-cleavage kobs at 160 uM GlcN6P” value [2] was under 1e-05 s⁻¹ and the “self-cleavage kobs at 640 uM GlcN6P” value [3] was under 1e-05 s⁻¹.

For G13U A15U, the kcat [7] was 0.000299 ± 2e-05 s⁻¹, the KM [6] was 5440 ± 760 µM and the “self-cleavage kobs at 2500 uM GlcN6P” value [4] was 9.42e-05 ± 1.4e-05 s⁻¹. For the same variant, the “self-cleavage kobs at 10000 uM GlcN6P” value [5] was 0.000194 ± 1.9e-05 s⁻¹.

With U49C C70U the “self-cleavage kobs at 40 uM GlcN6P” value [1] was under 1e-05 s⁻¹, the “self-cleavage kobs at 640 uM GlcN6P” value [3] was under 1e-05 s⁻¹ and the “self-cleavage kobs at 10000 uM GlcN6P” value [5] was under 1e-05 s⁻¹.

With A48G C70A the kcat [7] was 4.63e-05 ± 4.7e-06 s⁻¹, the “self-cleavage kobs at 2500 uM GlcN6P” value [4] was 4.55e-05 ± 1.2e-05 s⁻¹ and the “self-cleavage kobs at 10000 uM GlcN6P” value [5] was 4.22e-05 ± 6.5e-06 s⁻¹.

For A6C G51A, the “self-cleavage kobs at 40 uM GlcN6P” value [1] was under 1e-05 s⁻¹, the “self-cleavage kobs at 160 uM GlcN6P” value [2] was under 1e-05 s⁻¹ and the “self-cleavage kobs at 2500 uM GlcN6P” value [4] was under 1e-05 s⁻¹. For the same variant, the “self-cleavage kobs at 10000 uM GlcN6P” value [5] was under 1e-05 s⁻¹.

With A42C U49G the kcat [7] was 1.03e-05 ± 3.2e-07 s⁻¹ and the KM [6] was 512 ± 51 µM.

In the case of A14G G37C, the kcat [7] is reported as 0.000101 ± 3.2e-05 s⁻¹, the “self-cleavage kobs at 640 uM GlcN6P” value [3] is reported as 5.36e-05 ± 1.6e-05 s⁻¹ and the “self-cleavage kobs at 2500 uM GlcN6P” value [4] is reported as 4.49e-05 ± 9e-06 s⁻¹. For the same variant, the “self-cleavage kobs at 10000 uM GlcN6P” value [5] was 8.64e-05 ± 9.6e-06 s⁻¹.

A14G G37U was tested, and the kcat [7] was 2.35e-05 ± 1.3e-06 s⁻¹, the KM [6] was 1680 ± 470 µM and the “self-cleavage kobs at 40 uM GlcN6P” value [1] was under 1e-05 s⁻¹. For the same variant, the “self-cleavage kobs at 10000 uM GlcN6P” value [5] was 2.02e-05 ± 1e-05 s⁻¹.
